Test results taken from patent publication US20180214548A1.
Blank lines part the entries; values can stand above or below the substance they belong to.

How the values were obtained:
[1] = target: full length human PD-1 on cells (human) (UniProt Q15116); assay: flow cytometry, CHO-K1-hPD-1 cells; antibody 0.0001 nM
[2] = target: human PD-1^ECD-hFc protein (Immunogen A) (human) (UniProt Q15116); assay: ELISA, coated human PD-1ECD-hFc; antibody 0.001 nM
[3] = target: cyno PD-1^ECD-hFc protein (cyno monkey) (UniProt B0LAJ3); assay: ELISA, coated cyno PD-1ECD-hFc; antibody 0.001 nM
Sequence of cyno PD-1^ECD-hFc protein (cyno monkey) (B0LAJ3 entry or part of it limits assumed): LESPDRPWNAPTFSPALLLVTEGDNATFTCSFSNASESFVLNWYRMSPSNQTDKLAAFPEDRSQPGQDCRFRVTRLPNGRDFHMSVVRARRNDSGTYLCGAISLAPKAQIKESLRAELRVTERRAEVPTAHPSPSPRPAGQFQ

[4] = target: CD28 (human) (UniProt P10747); assay: ELISA, coated protein 1 ug/mL; antibody concentration not stated
Sequence of CD28 (human) (P10747 19-152 limits assumed): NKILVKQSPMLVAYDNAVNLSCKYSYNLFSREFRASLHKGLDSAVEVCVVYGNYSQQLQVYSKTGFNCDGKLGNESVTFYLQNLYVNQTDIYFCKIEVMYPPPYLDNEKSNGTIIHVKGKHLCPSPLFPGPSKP

[5] = target: ICOS (human) (UniProt Q9Y6W8); assay: as above
Sequence of ICOS (human) (Q9Y6W8 21-140 limits assumed): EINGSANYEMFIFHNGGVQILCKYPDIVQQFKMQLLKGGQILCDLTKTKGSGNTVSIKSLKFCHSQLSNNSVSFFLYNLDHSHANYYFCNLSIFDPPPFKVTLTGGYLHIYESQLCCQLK

[6] = target: human PD-1^ECD-hFc protein (Immunogen A) (human) (UniProt Q15116); assay: as above
[7] = target: B7-1 (human) (UniProt P33681); assay: as above
Sequence of B7-1 (human) (P33681 35-242 limits assumed): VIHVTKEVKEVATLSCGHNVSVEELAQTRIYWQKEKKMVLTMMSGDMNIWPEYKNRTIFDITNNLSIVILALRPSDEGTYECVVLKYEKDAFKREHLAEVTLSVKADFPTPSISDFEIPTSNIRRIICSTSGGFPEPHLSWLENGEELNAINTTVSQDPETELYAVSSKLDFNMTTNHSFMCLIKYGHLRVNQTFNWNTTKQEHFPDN

[8] = target: CTLA4 (human) (UniProt P16410); assay: as above
Sequence of CTLA4 (human) (P16410 37-162 limits assumed): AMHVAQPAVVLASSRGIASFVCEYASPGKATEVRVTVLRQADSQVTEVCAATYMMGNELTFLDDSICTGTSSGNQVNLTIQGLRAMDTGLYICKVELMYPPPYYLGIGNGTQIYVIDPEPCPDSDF

[9] = target: cyno PD-1^ECD-hFc protein (cyno monkey) (UniProt B0LAJ3); assay: ELISA, coated cyno PD-1ECD-hFc; antibody 0.0001 nM
[10] = target: human PD-1^ECD-hFc protein (Immunogen A) (human) (UniProt Q15116); assay: ELISA, coated human PD-1ECD-hFc; antibody 0.0001 nM
[11] = target: cyno PD-1^ECD-hFc protein (cyno monkey) (UniProt B0LAJ3); assay: ELISA, coated cyno PD-1ECD-hFc; antibody 0.00001 nM
[12] = target: full length human PD-1 on cells (human) (UniProt Q15116); assay: flow cytometry, CHO-K1-hPD-1 cells; antibody 0.01 nM
[13] = target: full length human PD-1 on cells (human) (UniProt Q15116); assay: flow cytometry, CHO-K1-hPD-1 cells; antibody 0.00001 nM
[14] = target: human PD-1, full length, on cells (human) (UniProt Q15116); assay: cell-based or functional assay
Sequence of human PD-1, full length, on cells (human) (Q15116 25-288): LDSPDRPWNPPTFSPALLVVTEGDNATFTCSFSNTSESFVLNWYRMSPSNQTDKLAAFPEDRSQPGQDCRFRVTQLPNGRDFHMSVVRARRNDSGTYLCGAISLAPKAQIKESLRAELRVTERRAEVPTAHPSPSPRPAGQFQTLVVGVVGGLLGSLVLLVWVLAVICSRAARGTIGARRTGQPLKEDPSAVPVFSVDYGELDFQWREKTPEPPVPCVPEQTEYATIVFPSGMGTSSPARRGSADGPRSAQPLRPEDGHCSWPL

[15] = target: full length human PD-1 on cells (human) (UniProt Q15116); assay: flow cytometry, CHO-K1-hPD-1 cells; antibody 0.001 nM
[16] = target: human PD-1^ECD-hFc protein (Immunogen A) (human) (UniProt Q15116); assay: ELISA, coated human PD-1ECD-hFc; antibody 0.00001 nM
[17] = target: human PD-1^ECD-hFc protein (Immunogen A) (human) (UniProt Q15116); assay: ELISA, coated PD-1ECD-hFc; biotinylated protein 0.2 ug/mL
[18] = target: human PD-1^ECD-hFc protein (Immunogen A) (human) (UniProt Q15116); assay: ELISA, coated PD-1ECD-hFc; biotinylated protein 0.0003 ug/mL
[19] = target: human PD-1^ECD-hFc protein (Immunogen A) (human) (UniProt Q15116); assay: ELISA, coated PD-1ECD-hFc; biotinylated protein 0.04 ug/mL
[20] = target: human PD-1^ECD-hFc protein (Immunogen A) (human) (UniProt Q15116); assay: ELISA, coated PD-1ECD-hFc; biotinylated protein 0.00001 ug/mL
[21] = target: human PD-1^ECD-hFc protein (Immunogen A) (human) (UniProt Q15116); assay: ELISA, coated PD-1ECD-hFc; biotinylated protein 1 ug/mL
[22] = target: human PD-1^ECD-hFc protein (Immunogen A) (human) (UniProt Q15116); assay: ELISA, coated PD-1ECD-hFc; biotinylated protein 0.008 ug/mL
[23] = target: human PD-1^ECD-hFc protein (Immunogen A) (human) (UniProt Q15116); assay: ELISA, coated PD-1ECD-hFc; biotinylated protein 0.0001 ug/mL
[24] = target: human PD-1^ECD-hFc protein (Immunogen A) (human) (UniProt Q15116); assay: ELISA, coated PD-1ECD-hFc; biotinylated protein 0.0016 ug/mL

Sequence of human PD-1^ECD-hFc protein (Immunogen A) (human) (Q15116 25-167): as the sequence (B0LAJ3 entry or part of it limits assumed) above, with E2D, A10P, L19V, A35T, R75Q counted along it
Sequence of full length human PD-1 on cells (human) (Q15116 25-288 limits assumed): as the sequence (Q15116 25-288) above

Mean fluorescence intensity [1]: 3.1 | OD450 nm [2]: 0.311 | OD450 nm [3]: 0.106 | OD450 nm [4]: 0.064 | OD450 nm [5]: 0.142 | OD450 nm [6]: 0.082 | OD450 nm [7]: 0.07 | OD450 nm [8]: 0.062 | OD450 nm [9]: 0.11 | OD450 nm [10]: 0.298 | OD450 nm [11]: 0.116 | Mean fluorescence intensity [12]: 2.9 | Mean fluorescence intensity [13]: 2.7 | IFN-γ release, mixed lymphocyte reaction (PBMC donor-2), antibody 0.01 µg/mL [14]: 353 pg/mL | IFN-γ release, mixed lymphocyte reaction (PBMC donor-2), antibody 0.1 µg/mL [14]: 281 pg/mL | IFN-γ release, mixed lymphocyte reaction (PBMC donor-2), antibody 1 µg/mL [14]: 127 pg/mL | Mean fluorescence intensity [15]: 2.9 | OD450 nm [16]: 0.287
Substance: IgG control (human IgG) (antibody)

OD450 nm [17]: 0.095 | OD450 nm [18]: 0.195 | OD450 nm [19]: 0.09 | OD450 nm [20]: 0.205 | OD450 nm [21]: 0.13 | OD450 nm [22]: 0.14 | OD450 nm [23]: 0.32 | OD450 nm [24]: 0.195
Substance: control protein (biotinylated non-PD-L1^ECD-hFc)
